Results as given in US20120129757A1, “COMPOSITIONS AND METHODS FOR PROMOTING VASCULAR BARRIER FUNCTION AND TREATING PULONARY FIBROSIS” (priority 2008, published 2012).
Entries after “also recorded” stand apart in the source; their conditions may differ.

Assays:
BL/6 mice = type: in vivo, mouse
HMVEC-lung [1] = assay: Subcellular (membrane) fractionation and immunoblotting; type: cell-based, human
Description: Subcellular fractionation. HMVEC-lung were treated with Slit2N or Mock in 0.1% FBS EBM-2 for 1.5 hours. Cells were then washed twice with ice-cold PBS containing Ca^2+/Mg^2+, once with HLB buffer (10 mM Tris-HCl PH7.4, 5 mM KCl, 1 mM MgCl2), and collected in HLB buffer supplemented with protease inhibitors (Roche), phosphatase inhibitors (Sigma) and 1 mM DTT. Cells were then dounce-homogenized (20 strokes). The homogenate was centrifuged at 400 g for 10 minutes at 4° C. to pellet cell debris. The resulting supernatant was centrifuged again at 16,000 g for 30 minutes at 4° C. The pellet was washed once with HLB and resuspended in RIPA buffer for 30 minutes at 4° C. The resuspended pellet was centrifuged (16,000 g/15 min at 4° C.), and the resulting supernatant was saved as soluble membrane fraction. To obtain the total cell lysate an aliquot was saved prior to dounce homogenization. RIPA buffer was added to this aliquot and centrifuged at 13,000 g for 10 minutes at 4° C. The supernatant was saved and used as total cell lysate. Antibodies to VE-cadherin were obtained from Cell Signaling, and p120-catenin and β-catenin from BD biosciences.

HMVEC-lung [2] = assay: Immunofluorescence for VE-cadherin and p120-catenin after IL-1β stimulation; type: cell-based, human; settings: 10 ng/mL IL-1β 3 hours, Slit2N pre-treatment 30 minutes
Description: Immunofluorescence. Immunofluorescence was performed as described in Jones, C. […] 2008. Cells were pre-treated with Slit2N or Mock for 30 minutes followed by stimulation with 10 ng/mL IL-1β for 3 hours. Primary antibodies to VE-cadherin (BD biosciences) or p120-catenin (Santa Cruz) were applied at 4° C. overnight. Images are representative of three independent experiments.

[3] = tested on: VE-cadherin/p120-catenin interaction; assay: Immunoprecipitation of VE-cadherin, immunoblot for p120-catenin; type: cell-based, human; settings: HMVEC-lung, 10 ng/mL IL-1β 10 minutes
Description: Immunoprecipitation. HMVEC-lung were treated with Slit2N or Mock in 0.1% FBS EBM-2 for 30 minutes. Cells were then stimulated with 10 ng/mL IL-1β for 10 minutes. HMVEC-lung were then washed with ice-cold PBS and lysed with ice-cold lysis buffer (10 mM Tris-HCl pH7.4, 50 mM NaCl, 1% NP-40 and 10% glycerol) supplemented with protease inhibitors, phosphatase inhibitors and 1 mM DTT. Cell lysates were incubated on ice for 30 min and centrifuged at 13,000 g for 15 minutes to pellet cell debris. Protein concentrations were determined by BCA assay (PIERCE) and 0.5 mg lysate were incubated with 8 μg of VE-cadherin antibody (Cell Signaling) and protein A/G sepharose (Santa Cruz) for 1 hour at 4° C. Complexes were washed three times with lysis buffer. The immunoprecipitates were subjected to Western blot analysis.

VE-cadherin = VE-cadherin internalization assay; type: cell-based, human; settings: HMVEC-lung, 10 ng/ml IL-1β 1 hour, 10 nM Slit2N
Description: Internalization assay. VE-cadherin internalization was performed as described Xiao, K., J. Garner, K. M. Buckley, P. A. Vincent, C. M. Chiasson, E. Dejana, V. Faundez, and A. P. Kowalczyk. 2005. p120-Catenin regulates clathrin-dependent endocytosis of VE-cadherin. Mol Biol Cell 16:5141-5151. In brief, HMVEC-lung were seeded onto chamber slides and cultured for 72 hours. The media was then removed and the cells labeled for 30 minutes at 4° C. with anti-VE-cadherin antibody (clone BV6, RDI Fitzgerald). Cells were then pre-treated with Slit2N or Mock for 30 minutes. Excess antibody was removed by washing twice on ice with ice-cold media. Chamber slides were moved to 37° C. and incubated for 1 hour with 10 ng/ml IL-1β and 0.6 mM primaquine in the presence of 10 nM Slit2N or Mock. Cells were acid-washed to strip the surface-bound VE-cadherin. Monolayers were washed, fixed, and permeablized. Internalized VE-cadherin antibody was detected with Alexa 488-conjugated donkey anti-mouse IgG (Molecular Probes). Images are representative of four independent experiments.

C57BL/6 mice [4] = type: in vivo, mouse
primary human PMNs = assay: Neutrophil migration to fMLP, primary hPMNs; type: cell-based; settings: fMLP 10 μM, 2 h
Description: Neutrophil migration. HL-60 cells were grown under standard conditions with RPMI-1640 media supplemented with 10% FBS and 1% pen/step. Cells induced with 1.2% dimethyl sulphoxide (DMSO) were obtained by seeding HL-60 cells at 3×10^6 per mL in growth media and culturing for 4 6 days (Collins, S. J., F. W. Ruscetti, R. E. Gallagher, and R. C. Gallo. 1978. Terminal differentiation of human promyelocytic leukemia cells induced by dimethyl sulfoxide and other polar compounds. Proc Natl Acad Sci USA 75:2458-2462). hPMNs were isolated from healthy adult donor whole blood with ACD using techniques described in Zimmerman, G. A., T. M. McIntyre, and S. M. Prescott. 1985. Thrombin stimulates the adherence of neutrophils to human endothelial cells in vitro. J Clin Invest 76:2235-2246. The leukocyte chemoattractant fMLP (10 μM) along with Slit2 or Mock was placed in the lower wells of a 48-well chemotaxis chamber (Neuroprobe). A fibronectin coated (over night at 4° C.) polycarbonate membrane (Neuroprobe, 5 μm) was placed between the chemoattractant and the cells. HL-60 cells induced with DMSO or hPMNs (50 μl, 50,000 cells) were added to the upper wells. […] Migrated cells in 5 high power fields were counted and migration expressed as the percent of cells migrated compared to cells migrated towards fMLP in the absence of Slit2 or Mock.

C57BL/6 mice [5] = type: in vivo, mouse; remark: listed apart in the source
[6] = tested on: H5N1 virus (Influenza A, Duck/MN/1525/81); type: in vivo, BALB/c mice
endothelial cell = assay: VEGF mediated endothelial cell migration; type: cell-based; settings: Slit constructs 2 nM
[7] = Slit2N vs Mock, membrane fraction
[8] = 20 μg VE-cadherin blocking antibody (BV13) IV, LPS IT
[9] = Robo4+/+ mice, 24 hours after LPS, dose-dependent

## COc1nc(-c2ccc3c(c2)OCO3)n(-c2ccc(NC(=O)CSc3ccccc3)cc2)n1 [SecinH3, reference compound]
BL/6 mice; BL/6 mice, 0.05 U Bleomycin intranasal, 100 uL of 30 uM SecinH3 i.p. twice a day, day 11
  Bleomycin-induced fibrosis (Sircol collagen assay): inhibits

B1: Slit2N: N-terminal active fragment of Slit2 released by proteolytic cleavage; 150 kD recombinant protein, SEQ ID NO: 4 (protein, listed as Homo sapiens)
chain: QACPAQCSCSGSTVDCHGLALRSVPRNIPRNTERLDLNGNNITRITKTDFAGLRHLRVLQLMENKISTIERGAFQDLKELERLRLNRNHLQLFPELLFLGTAKLYRLDLSENQIQAIPRKAFRGAVDIKNLQLDYNQISCIEDGAFRALRDLEVLTLNNNNITRLSVASFNHMPKLRTFRLHSNNLYCDCHLAWLSDWLRQRPRVGLYTQCMGPSHLRGHNVAEVQKREFVCSDEEEGHQSFMAPSCSVLHCPAACTCSNNIVDCRGKGLTEIPTNLPETITEIRLEQNTIKVIPPGAFSPYKKLRRIDLSNNQISELAPDAFQGLRSLNSLVLYGNKITELPKSLFEGLFSLQLLLLNANKINCLRVDAFQDLHNLNLLSLYDNKLQTIAKGTFSPLRAIQTMHLAQNPFICDCHLKWLADYLHTNPIETSGARCTSPRRLANKRIGQIKSKKFRCSGTEDYRSKLSGDCFADLACPEKCRCEGTTVDCSNQKLNKIPEHIPQYTAELRLNNNEFTVLEATGIFKKLPQLRKINFSNNKITDIEEGAFEGASGVNEILLTSNRLENVQHKMFKGLESLKTLMLRSNRITCVGNDSFIGLSSVRLLSLYDNQITTVAPGAFDTLHSLSTLNLLANPFNCNCYLAWLGEWLRKKRIVTGNPRCQKPYFLKEIPIQDVAIQDFTCDDGNDDNSCSPLSRCPTECTCLDTVVRCSNKGLKVLPKGIPRDVTELYLDGNQFTLVPKELSNYKHLTLIDLSNNRISTLSNQSFSNMTQLLTLILSYNRLRCIPPRTFDGLKSLRLLSLHGNDISVVPEGAFNDLSALSHLAIGANPLYCDCNMQWLSDWVKSEYKEPGIARCAGPGEMADKLLLTTPSKKFTCQGPVDVNILAKCNPCLSNPCKNDGTCNSDPVDFYRCTCPYGFKGQDCDVPIHACISNPCKHGGTCHLKEGEEDGFWCICADGFEGENCEVNVDDCEDNDCENNSTCVDGINNYTCLCPPEYTGELCEEKLDFCAQDLNPCQHDSKCILTPKGFKCDCTPGYVGEHCDIDFDDCQDNKCKNGAHCTDAVNGYTCICPEGYSGLFCEFSPPMVLPRT
HMVEC-lung [1]; Slit2N vs Mock 1.5 hours, membrane fraction and immunofluorescence
  VE-cadherin levels at the cell surface junctions: significantly increased
HMVEC-lung [1]; [7]
  cell surface p120-catenin expression: increased
  other junction or catenin family members (β-catenin): no observed effect
HMVEC-lung [2]
  IL-1β decrease of p120-catenin at the cell surface: reversed this effect
  IL-1β reduction of VE-cadherin levels at the cell surface: negated this effect
[3]
  association of VE-cadherin and p120-catenin after IL-1β: restores
VE-cadherin
  internalization of VE-cadherin induced by IL-1β: blocks
C57BL/6 mice [4]; [8]
  inflammatory cell infiltration in BALF in the presence of a VE-cadherin blocking antibody: not
  protein exudates in BALF in the presence of a VE-cadherin blocking antibody: not
C57BL/6 mice [4]; 20 μg control IgG IV, LPS IT
  inflammatory cell infiltration in BALF in the presence of a control IgG antibody: reduced
  protein exudates in BALF in the presence of a control IgG antibody: reduced
C57BL/6 mice [4]; LPS treated Robo4+/+ mice, 10 μg LPS IT, 3.5 μg Slit2N IV
  vascular leak in the lungs (Evans Blue Albumin): significantly reduces
C57BL/6 mice [4]; LPS treated Robo4AP/AP mice
  effect on vascular leak in the lungs (Evans Blue Albumin), Robo4-null mice: lost
C57BL/6 mice [4]; Robo4+/+ mice
  LPS-induced lung inflammation / ALI by histological examination (H&E, quantitative histology): reducing; also recorded: reduces
C57BL/6 mice [4]; [9]
  inflammatory cell accumulation in BALF: reduced
  protein exudates in BALF: reduced
C57BL/6 mice [4]; Robo4AP/AP mice
  inhibition of leukocyte accumulation in BALF, Robo4-null mice: lost
  inhibition of protein accumulation in BALF, Robo4-null mice: lost
Primary human PMNs
  neutrophil migration to fMLP: did not respond
BL/6 mice; Robo4+/+ mice, day 11, 5 μg daily i.p.
  Bleomycin-induced pulmonary fibrosis (Sircol collagen): significantly reduced
BL/6 mice; Robo4+/+ mice, eleven days after Bleomycin, 5 μg daily i.p.
  Bleomycin-induced EBA accumulation in the lung: significantly reduced
BL/6 mice; Robo4-dependent manner
  histologic examination of the lung, trichrome stain (collagen deposition): confirmed the effect
BL/6 mice; Robo4AP/AP mice
  effect on Bleomycin-induced EBA accumulation in the lung, Robo4-null mice: lost
  effect on Bleomycin-induced pulmonary fibrosis, Robo4-null mice: lost
C57BL/6 mice [5]; mouse, in vivo, ip
  survival of mice exposed to CLP-induced sepsis: ~80%
C57BL/6 mice [5]; six hours after CLP
  expression of a panel of cytokines and chemokines in plasma: did not alter
[6]; 6 days after infection, compared to mock treated mice
  lung pathology (H&E): decreased in severity
[6]; 6 days post-infection
  level of inflammatory cytokine release in lung homogenates: does not significantly reduce
  lung viral titers (viral load): did not alter
[6]; 21 days, 1.56 μg IV daily for 5 days
  mortality after H5N1 infection: reduced

B2: Slit2-D1: Recombinant Slit2 construct, 40 kD, SEQ ID NO: 7 (protein, listed as Homo sapiens)
chain: ILNKVAPQACPAQCSCSGSTVDCHGLALRSVPRNIPRNTERLDLNGNNITRITKTDFAGLRHLRVLQLMENKISTIERGAFQDLKELERLRLNRNHLQLFPELLFLGTAKLYRLDLSENQIQAIPRKAFRGAVDIKNLQLDYNQISCIEDGAFRALRDLEVLTLNNNNITRLSVASFNHMPKLRTFRLHSNNLYCDCHLAWLSDWLRQRPRVGLYTQCMGPSHLRGHNVAEVQKREFVCS
Endothelial cell
  Inhibition of VEGF mediated endothelial cell migration: active
